Measurements published in IntAct's records for PubMed 19103591.

B1: Anti-sigma-E factor RseA (Escherichia coli (strain K12)), P0AFX7 (parent)
chain: MQKEQLSALMDGETLDSELLNELAHNPEMQKTWESYHLIRDSMRGDTPEVLHFDISSRVMAAIEEEPVRQPATLIPEAQPAPHQWQKMPFWQKVRPWAAQLTQMGVAACVSLAVIVGVQHYNGQSETSQQPETPVFNTLPMMGKASPVSLGVPSEATANNGQQQQVQEQRRRINAMLQDYELQRRLHSEQLQFEQAQTQQAAVQVPGIQTLGTQSQ
partner: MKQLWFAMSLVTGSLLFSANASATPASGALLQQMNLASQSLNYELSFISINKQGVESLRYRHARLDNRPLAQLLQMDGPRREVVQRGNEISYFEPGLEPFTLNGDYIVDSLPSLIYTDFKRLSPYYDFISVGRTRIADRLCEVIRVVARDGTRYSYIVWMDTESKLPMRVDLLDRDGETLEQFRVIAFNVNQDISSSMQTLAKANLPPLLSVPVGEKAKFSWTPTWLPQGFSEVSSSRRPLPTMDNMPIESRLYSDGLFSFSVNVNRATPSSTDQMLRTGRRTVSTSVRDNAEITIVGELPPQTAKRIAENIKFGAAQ

Variants of: B1
Conditions: with rseb_ecoli rseB

Row | effect of a mutation on the interaction | Variant
1 | increasing interaction strength | MQKEQLSALMDGETLDSELLNELAHNPEMQKTWESYHLIRDSMRGDTPEVLHFDISSRVMAAIEEEPVRQPATLIPEAQPAPHQWQKMPFWQKVRPWAAQLTQMGVAACVSLAVIVGVQHYNGQSETSQQPETPVFNTLPMMGKASPVSLGVPSEATANNGQQQQVQEQRRRINAMLQDYELQRRLCSEQLQFEQAQTQQAAVQVPGIQTLGTQSQ [H187C]

Variants of: B1
Conditions: with rseb_ecoli rseB
Remark: another data set of the same source

Row | effect of a mutation on the interaction | Variant
2 | decreasing interaction | MQKEQLSALMDGETLDSELLNELAHNPEMQKTWESYHLIRDSMRGDTPEVLHFDISSRVMAAIEEEPVRQPATLIPEAQPAPHQWQKMPFWQKVRPWAAQLTQMGVAACVSLAVIVGVQHYNGQSETSQQPETPVFNTLPMMGKASPVSLGVPSEATANNGQQQQVQEQRRRINAALQDYELQRRLHSEQLQFEQAQTQQAAVQVPGIQTLGTQSQ [M176A]
3 | decreasing interaction | MQKEQLSALMDGETLDSELLNELAHNPEMQKTWESYHLIRDSMRGDTPEVLHFDISSRVMAAIEEEPVRQPATLIPEAQPAPHQWQKMPFWQKVRPWAAQLTQMGVAACVSLAVIVGVQHYNGQSETSQQPETPVFNTLPMMGKASPVSLGVPSEATANNGQQQQVQEQRRRINAMAQDYELQRRLHSEQLQFEQAQTQQAAVQVPGIQTLGTQSQ [L177A]
4 | decreasing interaction | MQKEQLSALMDGETLDSELLNELAHNPEMQKTWESYHLIRDSMRGDTPEVLHFDISSRVMAAIEEEPVRQPATLIPEAQPAPHQWQKMPFWQKVRPWAAQLTQMGVAACVSLAVIVGVQHYNGQSETSQQPETPVFNTLPMMGKASPVSLGVPSEATANNGQQQQVQEQRRRINAMLQDYELQRRAHSEQLQFEQAQTQQAAVQVPGIQTLGTQSQ [L186A]
5 | decreasing interaction | MQKEQLSALMDGETLDSELLNELAHNPEMQKTWESYHLIRDSMRGDTPEVLHFDISSRVMAAIEEEPVRQPATLIPEAQPAPHQWQKMPFWQKVRPWAAQLTQMGVAACVSLAVIVGVQHYNGQSETSQQPETPVFNTLPMMGKASPVSLGVPSEATANNGQQQQVQEQRRRINAMLQDYEAQRRLHSEQLQFEQAQTQQAAVQVPGIQTLGTQSQ [L182A]

Variants of: B1
Conditions: with rseb_ecoli rseB
Remark: another data set of the same source

Row | effect of a mutation on the interaction | Variant
6 | increasing interaction strength | MQKEQLSALMDGETLDSELLNELAHNPEMQKTWESYHLIRDSMRGDTPEVLHFDISSRVMAAIEEEPVRQPATLIPEAQPAPHQWQKMPFWQKVRPWAAQLTQMGVAACVSLAVIVGVQHYNGQSETSQQPETPVFNTLPMMGKASPVSLGVPSEATANNGQQQQVQEQRRRINAMLQDYELQRRCHSEQLQFEQAQTQQAAVQVPGIQTLGTQSQ [L186C]
7 | increasing interaction strength | MQKEQLSALMDGETLDSELLNELAHNPEMQKTWESYHLIRDSMRGDTPEVLHFDISSRVMAAIEEEPVRQPATLIPEAQPAPHQWQKMPFWQKVRPWAAQLTQMGVAACVSLAVIVGVQHYNGQSETSQQPETPVFNTLPMMGKASPVSLGVPSEATANNGQQQQVQEQRRRCNAMLQDYELQRRLHSEQLQFEQAQTQQAAVQVPGIQTLGTQSQ [I173C]
8 | increasing interaction strength | MQKEQLSALMDGETLDSELLNELAHNPEMQKTWESYHLIRDSMRGDTPEVLHFDISSRVMAAIEEEPVRQPATLIPEAQPAPHQWQKMPFWQKVRPWAAQLTQMGVAACVSLAVIVGVQHYNGQSETSQQPETPVFNTLPMMGKASPVSLGVPSEATANNGQQQQVQEQRRRINAMLQCYELQRRLHSEQLQFEQAQTQQAAVQVPGIQTLGTQSQ [D179C]

Variants of: B1
Conditions: with rseb_ecoli rseB
Remark: another data set of the same source

Row | effect of a mutation on the interaction | Variant
9 | decreasing interaction | MQKEQLSALMDGETLDSELLNELAHNPEMQKTWESYHLIRDSMRGDTPEVLHFDISSRVMAAIEEEPVRQPATLIPEAQPAPHQWQKMPFWQKVRPWAAQLTQMGVAACVSLAVIVGVQHYNGQSETSQQPETPVFNTLPMMGKASPVSLGVPSEATANNGQQQQVQEQRRRINAMLQDYELQRRLHSAQLQFEQAQTQQAAVQVPGIQTLGTQSQ [E189A]
10 | decreasing interaction | MQKEQLSALMDGETLDSELLNELAHNPEMQKTWESYHLIRDSMRGDTPEVLHFDISSRVMAAIEEEPVRQPATLIPEAQPAPHQWQKMPFWQKVRPWAAQLTQMGVAACVSLAVIVGVQHYNGQSETSQQPETPVFNTLPMMGKASPVSLGVPSEATANNGQQQQVQEQRRRANAMLQDYELQRRLHSEQLQFEQAQTQQAAVQVPGIQTLGTQSQ [I173A]
